This note sets out measurements from patent publication US20230265183A1 (MABWELL SHANGHAI BIOSCIENCE, published 2023).

Positions count from the first letter of the chain named.

In assay [1] the target is T1, murine Nectin4 (NP_082169) (murine, UniProt Q8R007 31-508).
T1 construct: whole, on cells; also called muNectin4
T1 sequence (looked up): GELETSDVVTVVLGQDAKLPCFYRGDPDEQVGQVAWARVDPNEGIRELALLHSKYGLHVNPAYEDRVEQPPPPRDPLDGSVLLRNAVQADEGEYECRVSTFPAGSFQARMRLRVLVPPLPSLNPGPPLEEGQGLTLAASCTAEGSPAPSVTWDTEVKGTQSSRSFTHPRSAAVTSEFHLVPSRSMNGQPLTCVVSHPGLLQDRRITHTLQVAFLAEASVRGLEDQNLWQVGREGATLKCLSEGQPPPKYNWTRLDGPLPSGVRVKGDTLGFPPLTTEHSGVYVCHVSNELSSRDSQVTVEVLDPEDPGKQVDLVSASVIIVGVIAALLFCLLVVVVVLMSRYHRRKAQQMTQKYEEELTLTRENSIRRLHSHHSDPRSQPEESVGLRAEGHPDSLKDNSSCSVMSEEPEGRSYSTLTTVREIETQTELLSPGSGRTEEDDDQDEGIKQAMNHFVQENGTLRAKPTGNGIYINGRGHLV
The assay is described as follows: FACS on HEK-muNectin4 cells.

For assay [2], the target named is T2, Cyno Nectin4 (Cyno, UniProt Q96NY8 32-510 (human entry)).
T2 construct: Expressed on HEK293 cells (HEK-cynoNectin4)
T2 chain: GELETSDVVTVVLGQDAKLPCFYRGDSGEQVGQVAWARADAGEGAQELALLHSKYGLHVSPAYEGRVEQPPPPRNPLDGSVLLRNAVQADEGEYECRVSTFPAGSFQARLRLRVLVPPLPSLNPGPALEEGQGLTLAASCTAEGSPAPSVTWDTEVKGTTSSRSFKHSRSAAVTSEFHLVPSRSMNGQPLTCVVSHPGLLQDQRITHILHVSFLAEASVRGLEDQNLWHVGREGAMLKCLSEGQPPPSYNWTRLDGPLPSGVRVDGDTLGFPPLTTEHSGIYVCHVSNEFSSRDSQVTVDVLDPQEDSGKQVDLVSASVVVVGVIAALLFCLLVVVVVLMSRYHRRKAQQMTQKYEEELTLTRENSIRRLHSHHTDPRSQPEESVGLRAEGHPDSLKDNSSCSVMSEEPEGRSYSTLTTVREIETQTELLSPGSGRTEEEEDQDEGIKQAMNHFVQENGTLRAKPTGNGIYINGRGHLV
The assay is described as follows: FACS on HEK-cynoNectin4 cells.

Assay [3] addresses T3, human Nectin-4 (human, UniProt Q96NY8 32-510).
T3 construct: whole, on cells; Cell-surface target of the FACS, endocytosis and proliferation assays (CHO-huNectin4 S8 cells, BT474 cells); the assay field says which cells; also called huNectin4; PVRL4
T3 sequence (looked up): T2 chain with A39V, V230I, T437A
The assay is described as follows: FACS on CHO-huNectin4 S8 cells.

Assay [4] has as its target T4, His-tagged human NECTIN4 (human, UniProt Q96NY8 32-349).
T4 construct: Antigen of the BIAcore assay; also called antigen; recombinant NECTIN4 protein; not shown: His tag
T4 sequence: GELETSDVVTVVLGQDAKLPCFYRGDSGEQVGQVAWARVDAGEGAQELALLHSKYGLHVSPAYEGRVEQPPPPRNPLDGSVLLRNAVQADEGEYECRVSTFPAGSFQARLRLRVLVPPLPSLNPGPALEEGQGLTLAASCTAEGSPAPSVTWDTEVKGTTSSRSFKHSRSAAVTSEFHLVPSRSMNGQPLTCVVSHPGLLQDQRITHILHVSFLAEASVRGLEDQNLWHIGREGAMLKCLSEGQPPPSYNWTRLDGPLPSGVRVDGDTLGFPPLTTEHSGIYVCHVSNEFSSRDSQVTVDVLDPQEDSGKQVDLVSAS
The assay is described as follows: SPR (BIAcore S200), antigen on CAP chip, antibody as analyte, 1:1 fit. The method, then: Interactions between the antibodies and the antigen were measured using a BIAcore instrument S200 from GE. Referring to the instructions provided in Biotin Capture Kit from GE Healthcare, the analytical channel and the control sample channel on CAP sensor chip were first coupled with antigen i.e. His-tagged human NECTIN4, then samples containing antibodies (diluted 3-fold from an initial concentration of 20 nM respectively and solutions of each antibody of 8 concentrations were obtained totally, and the concentration 0.741 nM was set to be repeated) were allowed to flow through both the analytical channel and the sample channel, and the photoreactions upon antibody-antigen binding were measured. Association constant Kon and dissociation constant Koff and affinity constant KD of each antibody were finally obtained by instrument software fitting (1:1 binding mode) analysis.
For orientation: SPR reads the build-up and loss of mass on a sensor chip optically.

For assay [5], the target named is T5, human Nectin-4(C-6His), Novoprotein Cat# CJ19 (human, UniProt Q96NY8 32-349).
T5 construct: Bought protein; also called recombinant human Nectin4 protein; antigen Nectin-4
T5 sequence: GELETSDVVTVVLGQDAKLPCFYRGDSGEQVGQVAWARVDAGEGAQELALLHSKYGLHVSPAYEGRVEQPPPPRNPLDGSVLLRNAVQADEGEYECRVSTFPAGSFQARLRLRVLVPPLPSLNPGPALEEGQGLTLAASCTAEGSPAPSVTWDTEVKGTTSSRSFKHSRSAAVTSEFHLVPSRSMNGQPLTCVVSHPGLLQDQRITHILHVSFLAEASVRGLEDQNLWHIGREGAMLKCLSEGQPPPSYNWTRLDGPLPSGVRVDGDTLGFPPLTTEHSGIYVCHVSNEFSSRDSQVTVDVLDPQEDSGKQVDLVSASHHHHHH
The experiment in a line: ELISA, plate coated with 1 µg/ml human Nectin-4(C-6His), HRP-labelled secondary antibody, absorbance at 450 nm. On the procedure:
Plates were coated with 1 µg/ml of the antigens and incubated at 4° C. overnight; next, antibodies serially diluted were added into the plates. Finally, the HRP-labeled secondary antibody was added, and absorbance at 450 nm was detected.
(In general: An ELISA detects its analyte on a solid surface through an enzyme-linked reagent.)

B1: Enfortumab (antibody, human IgG1, kappa, V domains shown)
VH: EVQLVESGGGLVQPGGSLRLSCAASGFTFSSYNMNWVRQAPGKGLEWVSYISSSSSTIYYADSVKGRFTISRDNAKNSLSLQMNSLRDEDTAVYYCARAYYYGMDVWGQGTTVTVSS
VL: DIQMTQSPSSVSASVGDRVTITCRASQGISGWLAWYQQKPGKAPKFLIYAASTLQSGVPSRFSGSGSGTDFTLTISSLQPEDFATYYCQQANSFPPTFGGGTKVEIKR
notes: also called control antibody Enfortumab
As a reminder, the EC50 is the concentration giving half of the maximal effect. Low readings indicate a more potent agent, high ones a less potent agent. One may read the Kd as the constant that tells how readily two partners part at equilibrium. Higher therefore signals lower affinity. As usually defined, the EC50 (read off the curve) is the concentration at which the effect is half-maximal. Low readings indicate greater potency, high ones weaker potency. As to B1, the EC50 is 2.43 µg/mL in assay [1], 0.948 to 2.07 µg/mL in assay [2] and 0.513 µg/mL in assay [3]. For the same molecule, the Kd in assay [4] turned out to be 4.94 nM. Besides, in assay [5], the “EC50 (read off the curve)” value was around 0.1 µg/mL.

B2: 42D20 hz10 (antibody, V domains shown)
VH: QVQLQESGPGLVKPSETLSLTCTVSGFSLIDYGVSWIRQPPGKGLEWIGVIWGDGKIYYNSVLKSRVTISKDNSKSQVSLKLSSVTAADTAVYYCAKQGGLLFYAMDYWGQGTLVTVSS
VL: DIVMTQSPDSLAVSLGERATINCKSSQSLLNSYSQKNYLAWYQQKPGQPPKLLIYFASTRESGVPDRFSGSGSGTDFTLTISSLQAEDVAVYYCQQHYNTPFTFGAGTKLELKR
notes: Humanized
As to B2, the EC50 was 8.74 µg/mL in assay [1], 2.42 to 4.97 µg/mL in assay [2] and 0.801 µg/mL in assay [3]. The molecule further came in with a Kd in assay [4] of 1.14 nM. In assay [5], the concentration for a half-maximal effect (EC50 (read off the curve)) was around 0.09 µg/mL.
